Consider 2 molecules from patent publication US9278119B2, “Treatment of prostate cancer and a method for determining the prognosis for prostate cancer patients” (WNTRESEARCH AB, priority 2011, dated 2016).

Where no end group is shown, it is not given here. The star is where a group is joined. For = O=C*

For assay [1], the system named is DU145 cells. Nature of the assay: Matrigel invasion assay, DU145 cells. Type of assay: cell-based, human. The conditions noted are these: 24 h. Here is the method:
(§1) Four human PCa cell lines LNCaP, 22Rv1, PC-3, and DU145 were purchased from American Type Culture Collection [ATCC] (Manassas, Va.). The immortalized PNT2 normal human prostate epithelial cells (cat No. 95012613) were obtained from European Collection of Cell Cultures (ECACC), (Sigma-Aldrich, St. Louis, Mo.). LNCaP, 22Rv1, DU145 and PNT2 cells lines were cultured in RPMI-1640 medium, supplemented with 10% fetal bovine serum (FBS) and 1% pest (penicillin and streptomycin). PC-3 cells were grown in Hyclone Ham's F12 medium supplemented with 10% FBS and 1% pest. All in vitro experiments were performed when cells were ˜70% confluent. For invasion assay experiments cells were grown in serum free medium (SFM) for 24 hours. RPMI-1640 medium (R0883), FBS (F6178), penicillin streptomycin (P0781) were purchased from Sigma-Aldrich, whereas Ham's F12 medium (SH30026.01) was obtained from Thermo-Scientific (Waltham, Mass.). All cell lines were regularly tested for the absence of mycoplasma infection.
(§2) Cell invasion capacities were measured in a standard commercial invasion assay. In this study the inventors used BD BioCoat™ Matrigel™ Invasion Chambers (BD Biosciences, Bedford, Mass.) in accordance with the manufacturer's protocol. […] Invaded cells were counted either in an 460 inverted microscope or in Olympus BX51 Fluorescence Microscope (Olympus optical Co. Ltd, Japan).

In assay [2] the test system is 22Rv1 cells. The assay can be described thus: Matrigel invasion assay, 22Rv1 cells. The conditions noted are these: 24 h. Type of assay: cell-based, human. As to the method: as §1, §2
For assay [3], the system named is PC3 cells. As to conditions: addition of rWnt5a to PC3 cells; report by Wang et al [26]; cited from earlier work.
Assay [4] deals with LNCaP cells. Nature of the assay: Matrigel invasion assay, LNCaP cells. Type of assay: cell-based, human. As to conditions: rWnt5a 0.4 μg/ml, 24 h, vs vehicle; FIG. 3B. Here is the method: as §1, §2
In assay [5] the test system is PC3 cells. The assay can be described thus: Matrigel invasion assay, PC3 cells. Type of assay: cell-based, human. As to conditions: rWnt5a 0.4 μg/ml, 24 h, vs vehicle; FIG. 3B. Here is the method: as §1, §2

As for “formylated derivative of MDGCEL (SEQ. ID. NO. 2) (For-MDGCEL; listed as Homo sapiens) [Foxy-5, the N-formylated hexapeptide Foxy5, Wnt5a derived peptide]”, the relative invasion entry in assay [1] (Foxy-5 100 microM, FIG. 6B) is “significantly inhibited the invasion”; in assay [2] (Foxy-5 100 microM, FIG. 6A), “significantly inhibited the invasion”.

B1: rWnt5a: recombinant Wnt5a protein (rWnt5a, R&D Systems, Minneapolis, Minn.) (protein, UniProt P41221 62-380, looked up)
Protein Wnt-5a: IIGAQPLCSQLAGLSQGQKKLCHLYQDHMQYIGEGAKTGIKECQYQFRHRRWNCSTVDNTSVFGRVMQIGSRETAFTYAVSAAGVVNAMSRACREGELSTCGCSRAARPKDLPRDWLWGGCGDNIDYGYRFAKEFVDARERERIHAKGSYESARILMNLHNNEAGRRTVYNLADVACKCHGVSGSCSLKTCWLQLADFRKVGDALKEKYDSAAAMRLNSRGKLVQVNSRFNSPTTQDLVYIDPSPDYCVRNESTGSLGTQGRLCNKTSEGMDGCELMCCGRGYDQFKTVQTERCHCKFHWCCYVKCKKCTEIVDQFVCK
Take B1: in assay [3], the “response in migration wound scratch assay” value is listed as “did not respond”. Besides, the relative invasion entry in assay [1] (rWnt5a 0.4 μg/ml, vs vehicle, p<0.0001, FIG. 3B) was “decreased the invasive behavior”; in assay [2] (rWnt5a 0.4 μg/ml, vs vehicle, p=0.0001, FIG. 3B), “decreased the invasive behavior”; in assay [4] it was “Neither the LNCaP nor the PC3 cells did respond”; in assay [5], “Neither the LNCaP nor the PC3 cells did respond”.
